Among the data in publication PMC9122588, “Control of bacterial immune signaling by a WYL domain transcription factor” are Kd values, retold here.

This series has as its target T1, Pa CapW (Pseudomonas aeruginosa PA17, UniProt P0DX74 1-299).
T1 sequence: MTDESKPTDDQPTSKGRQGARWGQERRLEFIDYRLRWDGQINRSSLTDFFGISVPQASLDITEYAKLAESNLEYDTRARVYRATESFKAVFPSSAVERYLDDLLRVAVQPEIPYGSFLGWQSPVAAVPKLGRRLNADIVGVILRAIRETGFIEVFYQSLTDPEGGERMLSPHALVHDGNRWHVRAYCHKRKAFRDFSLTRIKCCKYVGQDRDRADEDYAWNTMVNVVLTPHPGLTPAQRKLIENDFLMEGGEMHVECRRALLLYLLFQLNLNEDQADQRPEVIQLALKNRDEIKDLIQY
The experiment in a line: fluorescence polarization; 5 mM MgCl2; FP: 25 mM Tris pH 8.5, 50 mM NaCl, 5% glycerol, 5 mM MgCl2, 1 mM DTT, 0.01% NP-40 substitute, 50 nM DNA, 10 min, RT; EMSA: 50 mM Tris-HCl pH 8.5, 50 mM NaCl, 5. The following applies: protein: recombinant; tags: N-terminal His6-TEV, cleaved; chain copies: 2; label: 5'-6-FAM on one strand; blunt. On the technique in general: Polarisation of emitted light reports the rotation of a fluorescent probe.

B1: Probe #4 (dsDNA)
DNA 1: CTAAAAACTATGCGTATAGTAATAATACGC
DNA 2: GCGTATTATTACTATACGCATAGTTTTTAG
The Kd is the concentration at which binding is half-saturated. As to B1, the Kd is 1000 ± 100 nM.
